These sequences were tested against SHP2-C SH2 (assay: SH2 binding enrichment of the phosphorylated peptide, bacterial display (enrichment ratio); higher = better substrate or ligand; peptides without Tyr show the background).
Work on TNQVIYLNPPI [DYNC1H1_Y970] yielded an SH2 binding enrichment of 0.99. LFLALYTGLVH [PIGB_Y402] gave an SH2 binding enrichment of 0.7. Sequence ESFCLYPPVPQ [CYP4B1_Y377_R375C] has an SH2 binding enrichment of 0.842. With EEALFYLTRVE [SET_Y119_H118Y_YF] the SH2 binding enrichment was 0.796. GGYTCCCDGKK [PROS1_Y266_Y266C] showed an SH2 binding enrichment of 0.415. SEDSEYYKAFE [CASQ2_Y178] gave an SH2 binding enrichment of 0.614. YFRDGYMPRQY [GSS_Y270] showed an SH2 binding enrichment of 0.848. Work on TSYSGYRCHRH [NKAPL_Y94_Y96C] yielded an SH2 binding enrichment of 0.635. In the case of IDPYIYTPFGS [CYP3A4_Y432], the SH2 binding enrichment is reported as 0.868. WQQQSYLDSVI [CTNNB1_Y30_G34V] showed an SH2 binding enrichment of 0.509. Sequence FTRNFYVWAVL [CYBA_Y88_R90W_YF] has an SH2 binding enrichment of 0.737. IEPVIDVVQRR [ANOS1_Y217_Y217D] was tested, and the SH2 binding enrichment was 0.517. SDFFAYSPVRE [H6PD_Y449_YF] gave an SH2 binding enrichment of 1.06. SLNEEYAKNKT [MSH2_Y563_T564A] showed an SH2 binding enrichment of 0.759. ETKRPYTVILI [SBDS_Y128] gave an SH2 binding enrichment of 0.877. TEVRRYVLPLN [RPE65_Y368_P363T] gave an SH2 binding enrichment of 0.737. In the case of RRIHSYRGFLW [VHL_Y112_H115Y_YF], the SH2 binding enrichment is reported as 0.666. VPLATYMRIYK [RPL21_Y30] gave an SH2 binding enrichment of 0.55. For RHIEKYVDQGK [IRAK3_Y61], the SH2 binding enrichment was 0.834. Sequence GTTIHYNFMCN [TP53_Y234_C229G_YF] has an SH2 binding enrichment of 0.613. Work on ISKKIYDTIHD [CTNNA3_Y614] yielded an SH2 binding enrichment of 0.675. Work on ITSLLYHVVGW [GBA_Y412_N409S] yielded an SH2 binding enrichment of 1.22. Work on NLMPAYYKCIQ [CYP21A2_Y190] yielded an SH2 binding enrichment of 0.444. HCFAAYFQQGD [GPI_Y351_R347C] gave an SH2 binding enrichment of 0.929. For WNNLDYMDSRR [GAA_Y407_D404N], the SH2 binding enrichment was 1.43. PASWTYVRWFD [PTDSS1_Y274] showed an SH2 binding enrichment of 1.65. For PLRAFYLIARV [HLCS_Y635_D634Y_YF], the SH2 binding enrichment was 0.738. PSGPTYRGAVP [ASAH1_Y43] showed an SH2 binding enrichment of 0.74. Sequence FSGDCYRIQGR [DDR2_Y741_Y740C_YF] has an SH2 binding enrichment of 0.661.

The sequences below were run against c-Src SH2 in the same assay as above.
TNQVIYLNPPI [DYNC1H1_Y970] gave an SH2 binding enrichment of 0.459. LFLALYTGLVH [PIGB_Y402] showed an SH2 binding enrichment of 1.51. For ESFCLYPPVPQ [CYP4B1_Y377_R375C], the SH2 binding enrichment was 0.56. For EEALFYLTRVE [SET_Y119_H118Y_YF], the SH2 binding enrichment was 0.414. GGYTCCCDGKK [PROS1_Y266_Y266C] showed an SH2 binding enrichment of 0.477. SEDSEYYKAFE [CASQ2_Y178] was tested, and the SH2 binding enrichment was 0.558. YFRDGYMPRQY [GSS_Y270] showed an SH2 binding enrichment of 0.627. TSYSGYRCHRH [NKAPL_Y94_Y96C] was tested, and the SH2 binding enrichment was 0.732. IDPYIYTPFGS [CYP3A4_Y432] was tested, and the SH2 binding enrichment was 0.713. Work on WQQQSYLDSVI [CTNNB1_Y30_G34V] yielded an SH2 binding enrichment of 0.444. Sequence FTRNFYVWAVL [CYBA_Y88_R90W_YF] has an SH2 binding enrichment of 0.633. For IEPVIDVVQRR [ANOS1_Y217_Y217D], the SH2 binding enrichment was 0.608. SDFFAYSPVRE [H6PD_Y449_YF] was tested, and the SH2 binding enrichment was 1.37. With SLNEEYAKNKT [MSH2_Y563_T564A] the SH2 binding enrichment was 0.482. For ETKRPYTVILI [SBDS_Y128], the SH2 binding enrichment was 1.05. With TEVRRYVLPLN [RPE65_Y368_P363T] the SH2 binding enrichment was 0.829. Sequence RRIHSYRGFLW [VHL_Y112_H115Y_YF] has an SH2 binding enrichment of 0.581. Work on VPLATYMRIYK [RPL21_Y30] yielded an SH2 binding enrichment of 0.534. In the case of RHIEKYVDQGK [IRAK3_Y61], the SH2 binding enrichment is reported as 0.605. With GTTIHYNFMCN [TP53_Y234_C229G_YF] the SH2 binding enrichment was 0.603. ISKKIYDTIHD [CTNNA3_Y614] showed an SH2 binding enrichment of 5.91. ITSLLYHVVGW [GBA_Y412_N409S] gave an SH2 binding enrichment of 0.959. With NLMPAYYKCIQ [CYP21A2_Y190] the SH2 binding enrichment was 0.522. HCFAAYFQQGD [GPI_Y351_R347C] showed an SH2 binding enrichment of 0.673. With WNNLDYMDSRR [GAA_Y407_D404N] the SH2 binding enrichment was 0.527. Work on PASWTYVRWFD [PTDSS1_Y274] yielded an SH2 binding enrichment of 0.766. Work on PLRAFYLIARV [HLCS_Y635_D634Y_YF] yielded an SH2 binding enrichment of 0.6. PSGPTYRGAVP [ASAH1_Y43] gave an SH2 binding enrichment of 0.519. In the case of FSGDCYRIQGR [DDR2_Y741_Y740C_YF], the SH2 binding enrichment is reported as 0.502.
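Also: peptide library displayed on the E. coli surface as eCPX fusions, selected cells deep-sequenced, score is each peptide's frequency after selection divided by its frequency in the input.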
